Experimental data from paper PMC10006087, “The TINCR ubiquitin-like microprotein is a tumor suppressor in squamous cell carcinoma” (Nature Communications, 2023).

Target: the molecule itself
Assay: crystal structure; micro-batch under oil at 4 °C with seeding; 0.1 M magnesium sulfate heptahydrate, 0.1 M sodium acetate pH 5, 20% (w/v) PEG 1000; space group P4(3)2(1)2; 2.12 Å; two protomers in the asymmetric unit

B1: human TINCR protein (natural protein, UniProt A0A2R8Y7D0 1-87, looked up)
chain: MEGLRRGLSRWKRYHIKVHLADEALLLPLTVRPRDTLSDLRAQLVGQGVSSWKRAFYYNARRLDDHQTVRDARLQDGSVLLLVSDPR
notes: TINCR ubiquitin-like microprotein, human; The N-terminal 15-residue cap is visible in protomer A only; also called TINCR ubiquitin-like microprotein; TINCR recombinant protein
B1: binds.
